The subject of one series is AncSZ. As to the kind of experiment: phosphorylation enrichment, bacterial display (enrichment ratio); higher = better substrate or ligand; peptides without Tyr show the background.
The target of another series is EPHB1 (UniProt P54762). The description is as above.
A further series deals with EPHB2 (UniProt P29323). The series is described as above.
In the next series the target is FGFR1 (UniProt P11362). The description is as above.
A further series addresses FGFR3 (UniProt P22607). Described as above.
A further series relates to Fer (mouse). The description is as above.
Another series concerns the target Fes (UniProt P07332). The description is as above.
In a further series the target is Fyn (UniProt P06241). Described as above.
Fyn, sequence (P06241 whole entry, looked up): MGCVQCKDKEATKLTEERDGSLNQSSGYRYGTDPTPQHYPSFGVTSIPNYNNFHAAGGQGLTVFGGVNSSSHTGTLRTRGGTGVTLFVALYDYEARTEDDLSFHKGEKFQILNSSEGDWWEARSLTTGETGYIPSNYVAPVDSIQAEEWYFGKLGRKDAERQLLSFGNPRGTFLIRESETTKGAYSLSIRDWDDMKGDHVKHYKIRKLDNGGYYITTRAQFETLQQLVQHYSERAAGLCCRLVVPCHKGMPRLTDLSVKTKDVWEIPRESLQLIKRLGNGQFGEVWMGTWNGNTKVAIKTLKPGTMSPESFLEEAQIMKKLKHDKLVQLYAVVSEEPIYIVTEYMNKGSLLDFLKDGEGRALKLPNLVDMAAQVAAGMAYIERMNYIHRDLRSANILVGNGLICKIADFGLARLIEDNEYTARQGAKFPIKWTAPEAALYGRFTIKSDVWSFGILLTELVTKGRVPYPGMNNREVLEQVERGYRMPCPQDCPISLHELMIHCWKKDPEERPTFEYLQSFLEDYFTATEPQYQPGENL
The next series concerns the target Hck (UniProt P08631). The series is described as above.
In the next series the target is Jak2 (UniProt O60674). The description is as above.
For the next series, the target named is MERTK (UniProt Q12866). The description is as above.
A further series relates to c-Abl (mouse). Described as above.
A further series has as its system c-Src. The description is as above.
In the next series the target is Grb2 SH2 (UniProt P62993). Kind of series: SH2 binding enrichment of the phosphorylated peptide, bacterial display (enrichment ratio); higher = better substrate or ligand; peptides without Tyr show the background.
Grb2 SH2, sequence (P62993 whole entry, looked up): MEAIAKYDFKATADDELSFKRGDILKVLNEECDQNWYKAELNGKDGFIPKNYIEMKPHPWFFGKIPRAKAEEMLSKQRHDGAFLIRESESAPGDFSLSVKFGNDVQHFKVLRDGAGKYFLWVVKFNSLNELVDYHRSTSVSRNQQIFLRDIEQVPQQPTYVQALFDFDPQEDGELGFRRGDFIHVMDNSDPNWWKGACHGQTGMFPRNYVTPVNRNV
The next series has as its target SHP2-C SH2. Described as above.
A further series deals with c-Src SH2. Described as above.
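For SH2 binding enrichment of the phosphorylated peptide, bacterial display in this document: peptide library displayed on the E. coli surface as eCPX fusions, selected cells deep-sequenced, score is each peptide's frequency after selection divided by its frequency in the input.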
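For phosphorylation enrichment, bacterial display in this document: 11-residue human phosphosite peptides and single-mutation variants displayed on the E. coli surface, counted by deep sequencing, each peptide's frequency after selection divided by its frequency in the unselected input library; frequency after pTyr selection over input frequency; kinase dosed for 20-30% of maximal phosphorylation in three min.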

EPHB1, sequence (P54762 whole entry, looked up): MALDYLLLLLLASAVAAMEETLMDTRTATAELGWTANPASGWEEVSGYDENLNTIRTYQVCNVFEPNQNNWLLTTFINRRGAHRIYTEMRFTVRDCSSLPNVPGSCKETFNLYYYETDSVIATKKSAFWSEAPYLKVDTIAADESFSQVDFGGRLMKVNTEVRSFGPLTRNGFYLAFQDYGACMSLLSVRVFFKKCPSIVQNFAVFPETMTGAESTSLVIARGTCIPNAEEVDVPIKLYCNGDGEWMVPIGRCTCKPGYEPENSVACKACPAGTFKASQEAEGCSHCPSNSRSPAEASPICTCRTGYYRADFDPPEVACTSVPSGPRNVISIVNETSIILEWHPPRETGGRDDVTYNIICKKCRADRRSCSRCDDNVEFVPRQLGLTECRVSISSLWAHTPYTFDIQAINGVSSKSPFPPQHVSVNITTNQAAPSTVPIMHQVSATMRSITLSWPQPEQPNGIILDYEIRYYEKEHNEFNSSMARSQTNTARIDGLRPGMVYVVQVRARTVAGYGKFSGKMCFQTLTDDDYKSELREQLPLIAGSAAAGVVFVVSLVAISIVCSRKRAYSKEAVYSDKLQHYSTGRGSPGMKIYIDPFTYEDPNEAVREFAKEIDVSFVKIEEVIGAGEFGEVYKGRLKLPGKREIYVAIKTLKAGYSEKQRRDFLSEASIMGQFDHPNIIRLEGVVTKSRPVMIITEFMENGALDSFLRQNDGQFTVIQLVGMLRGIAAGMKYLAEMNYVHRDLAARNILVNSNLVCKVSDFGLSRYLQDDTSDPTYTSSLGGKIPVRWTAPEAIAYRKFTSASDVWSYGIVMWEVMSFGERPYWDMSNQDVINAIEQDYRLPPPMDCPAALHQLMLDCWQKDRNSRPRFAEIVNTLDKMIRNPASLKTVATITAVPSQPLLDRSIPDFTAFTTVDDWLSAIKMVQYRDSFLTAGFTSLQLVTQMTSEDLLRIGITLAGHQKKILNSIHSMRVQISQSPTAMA
FGFR1, sequence (P11362 whole entry, looked up): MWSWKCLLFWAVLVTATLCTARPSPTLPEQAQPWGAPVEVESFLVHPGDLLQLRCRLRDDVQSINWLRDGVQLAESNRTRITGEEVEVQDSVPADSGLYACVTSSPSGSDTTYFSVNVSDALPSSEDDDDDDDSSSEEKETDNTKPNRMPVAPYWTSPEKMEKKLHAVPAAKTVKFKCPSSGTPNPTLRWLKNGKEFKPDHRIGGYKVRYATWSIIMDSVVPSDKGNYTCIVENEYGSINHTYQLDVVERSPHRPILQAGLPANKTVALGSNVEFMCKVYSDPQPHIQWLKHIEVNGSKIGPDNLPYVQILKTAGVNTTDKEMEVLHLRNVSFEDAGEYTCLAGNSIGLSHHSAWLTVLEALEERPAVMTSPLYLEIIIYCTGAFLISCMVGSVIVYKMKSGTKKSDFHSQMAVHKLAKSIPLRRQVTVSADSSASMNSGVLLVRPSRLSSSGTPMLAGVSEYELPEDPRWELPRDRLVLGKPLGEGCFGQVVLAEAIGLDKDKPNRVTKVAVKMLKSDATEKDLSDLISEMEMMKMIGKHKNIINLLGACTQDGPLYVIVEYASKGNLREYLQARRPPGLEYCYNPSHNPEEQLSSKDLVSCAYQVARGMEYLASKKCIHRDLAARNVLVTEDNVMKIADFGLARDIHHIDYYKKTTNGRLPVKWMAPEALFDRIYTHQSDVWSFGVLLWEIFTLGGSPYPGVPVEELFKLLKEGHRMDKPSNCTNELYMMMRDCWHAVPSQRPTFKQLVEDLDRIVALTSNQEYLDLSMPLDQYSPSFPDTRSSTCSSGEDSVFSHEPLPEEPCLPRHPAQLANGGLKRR
Fes, sequence (P07332 whole entry, looked up): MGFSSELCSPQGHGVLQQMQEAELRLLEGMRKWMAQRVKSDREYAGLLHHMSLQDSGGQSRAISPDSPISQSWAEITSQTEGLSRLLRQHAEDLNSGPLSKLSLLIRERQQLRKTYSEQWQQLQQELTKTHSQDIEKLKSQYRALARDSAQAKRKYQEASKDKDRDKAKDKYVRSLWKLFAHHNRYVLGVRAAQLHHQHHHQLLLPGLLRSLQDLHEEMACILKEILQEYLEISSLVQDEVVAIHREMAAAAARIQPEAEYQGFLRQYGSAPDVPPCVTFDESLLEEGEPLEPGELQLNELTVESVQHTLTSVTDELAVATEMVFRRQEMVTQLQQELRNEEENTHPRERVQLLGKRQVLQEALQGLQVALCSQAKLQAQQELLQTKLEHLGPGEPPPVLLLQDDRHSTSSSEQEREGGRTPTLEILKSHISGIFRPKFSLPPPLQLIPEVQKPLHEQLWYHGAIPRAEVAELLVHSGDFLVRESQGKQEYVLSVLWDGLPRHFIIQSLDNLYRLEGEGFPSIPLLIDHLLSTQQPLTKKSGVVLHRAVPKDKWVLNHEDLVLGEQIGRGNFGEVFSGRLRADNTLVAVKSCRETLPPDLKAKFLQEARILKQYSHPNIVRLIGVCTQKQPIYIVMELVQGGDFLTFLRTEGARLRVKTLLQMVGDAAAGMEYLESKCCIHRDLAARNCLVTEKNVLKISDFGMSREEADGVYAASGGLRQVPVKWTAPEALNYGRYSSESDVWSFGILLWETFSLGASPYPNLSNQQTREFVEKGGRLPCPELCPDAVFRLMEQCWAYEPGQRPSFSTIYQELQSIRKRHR
FGFR3, sequence (P22607 whole entry, looked up): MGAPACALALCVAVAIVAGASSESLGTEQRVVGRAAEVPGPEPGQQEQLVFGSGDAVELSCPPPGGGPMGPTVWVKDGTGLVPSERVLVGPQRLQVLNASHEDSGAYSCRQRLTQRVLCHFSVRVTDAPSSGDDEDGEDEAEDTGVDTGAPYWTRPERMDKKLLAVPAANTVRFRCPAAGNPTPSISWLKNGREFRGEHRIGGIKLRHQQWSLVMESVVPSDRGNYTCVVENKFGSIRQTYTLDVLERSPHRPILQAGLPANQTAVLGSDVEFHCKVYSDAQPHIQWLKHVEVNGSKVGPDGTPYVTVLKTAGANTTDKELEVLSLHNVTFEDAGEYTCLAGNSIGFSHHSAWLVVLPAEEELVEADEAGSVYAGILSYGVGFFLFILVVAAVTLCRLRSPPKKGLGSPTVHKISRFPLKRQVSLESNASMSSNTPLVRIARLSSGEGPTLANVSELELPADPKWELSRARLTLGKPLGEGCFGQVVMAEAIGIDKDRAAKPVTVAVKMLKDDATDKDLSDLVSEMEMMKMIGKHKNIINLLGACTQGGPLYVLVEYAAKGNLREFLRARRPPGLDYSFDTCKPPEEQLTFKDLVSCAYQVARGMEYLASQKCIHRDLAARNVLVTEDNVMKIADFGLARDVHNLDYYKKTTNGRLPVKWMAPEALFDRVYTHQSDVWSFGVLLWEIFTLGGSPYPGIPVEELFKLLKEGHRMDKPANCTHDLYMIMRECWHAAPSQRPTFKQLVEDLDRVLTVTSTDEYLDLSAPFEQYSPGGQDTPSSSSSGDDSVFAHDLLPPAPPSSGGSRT
Hck, sequence (P08631 whole entry, looked up): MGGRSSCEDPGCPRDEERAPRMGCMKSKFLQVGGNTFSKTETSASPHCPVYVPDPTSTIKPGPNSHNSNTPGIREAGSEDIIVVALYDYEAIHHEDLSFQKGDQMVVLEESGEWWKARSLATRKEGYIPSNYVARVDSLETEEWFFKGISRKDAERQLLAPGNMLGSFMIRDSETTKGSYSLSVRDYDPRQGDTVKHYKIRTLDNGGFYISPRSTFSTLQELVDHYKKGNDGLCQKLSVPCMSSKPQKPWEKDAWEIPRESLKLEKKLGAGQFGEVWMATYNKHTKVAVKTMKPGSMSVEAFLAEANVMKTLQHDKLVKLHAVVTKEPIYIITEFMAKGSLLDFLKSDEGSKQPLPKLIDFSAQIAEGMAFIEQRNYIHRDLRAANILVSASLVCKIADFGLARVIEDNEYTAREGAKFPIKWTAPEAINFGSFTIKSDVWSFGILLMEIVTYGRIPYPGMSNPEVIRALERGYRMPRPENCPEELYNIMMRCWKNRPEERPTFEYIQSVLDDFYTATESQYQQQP

In the case of EEVPLYESATT [DCC_Y809_G805E], the phosphorylation enrichment came out at 1.5 in the series with AncSZ; 2.19 with EPHB1; 2.66 with EPHB2; 0.487 with FGFR1; 0.878 with FGFR3; 6.01 in the series on Fer (mouse). Also, the phosphorylation enrichment in the series with Fes turned out to be 1.32; in the series with Fyn it was 1.07; with Hck, 1.49; with Jak2, 1.27; with MERTK it was 0.601; with c-Abl (mouse), 1.04. Besides, the phosphorylation enrichment in the series on c-Src was found to be 1.09. For the same sequence, the values for the SH2 binding enrichment in the series with Grb2 SH2, with SHP2-C SH2 and in the series with c-Src SH2 were 0.8, 0.574 and 0.457, respectively.

For the sequence FKRAVYCIIGR [NUP93_Y391_YF], the phosphorylation enrichment with AncSZ turned out to be 0.952; with EPHB1 it was 0.576; in the series with EPHB2 it was 0.617; with FGFR1, 0.511; with FGFR3 it was 0.536; in the series on Fer (mouse), 0.529. For the same sequence, the phosphorylation enrichment is 0.9 with Fes; 0.682 in the series with Fyn; 0.938 in the series with Hck; 0.772 in the series with Jak2; 1.13 in the series with MERTK; 0.776 in the series on c-Abl (mouse). Moreover, the phosphorylation enrichment with c-Src came to 0.809. The SH2 binding enrichment in the series with Grb2 SH2 stood at 1.01; with SHP2-C SH2, 0.686; with c-Src SH2 it was 1.06.

For the sequence PSALGYSPSLH [LLGL2_Y40_R45H], the phosphorylation enrichment in the series with AncSZ was determined as 0.639; in the series with EPHB1, 0.573; in the series with EPHB2, 0.436; in the series with FGFR1, 0.48; with FGFR3 it was 0.553; in the series on Fer (mouse) it was 0.444. Also, the phosphorylation enrichment amounted to 0.823 with Fes; 0.458 with Fyn; 0.432 in the series with Hck; 0.71 with Jak2; 0.621 with MERTK; 0.864 in the series on c-Abl (mouse). Besides, in the series with c-Src, the phosphorylation enrichment was 0.631. In addition, the SH2 binding enrichment with Grb2 SH2 was found to be 0.827; with SHP2-C SH2, 0.695; with c-Src SH2, 0.466.

For the sequence LKETGYVVERP [BCLAF1_Y466], the phosphorylation enrichment stood at 0.768 in the series on AncSZ; 0.494 with EPHB1; 0.278 with EPHB2; 0.443 with FGFR1; 0.609 in the series with FGFR3; 0.321 in the series with Fer (mouse). Also, the phosphorylation enrichment with Fes was determined as 0.807; with Fyn, 0.434; in the series with Hck, 0.399; with Jak2, 0.553; with MERTK it was 0.438; in the series on c-Abl (mouse), 0.469. The phosphorylation enrichment in the series on c-Src was 0.411. In addition, the SH2 binding enrichment in the series with Grb2 SH2 came to 0.862; in the series with SHP2-C SH2, 0.68; with c-Src SH2, 0.501.

In the case of SSMNDYNPLEK [MYOC_Y479_I477N], the phosphorylation enrichment came to 0.797 with AncSZ; 0.422 with EPHB1; 0.454 in the series with EPHB2; 0.456 with FGFR1; 0.578 with FGFR3; 0.397 with Fer (mouse). The phosphorylation enrichment with Fes was 0.977; in the series with Fyn, 0.4; with Hck, 0.479; in the series with Jak2 it was 1.07; with MERTK, 0.614; in the series on c-Abl (mouse), 0.625. For the same sequence, in the series with c-Src, the phosphorylation enrichment stood at 0.502. The values for the SH2 binding enrichment with Grb2 SH2, with SHP2-C SH2 and with c-Src SH2 were 0.848, 0.616 and 0.645, respectively.

In the case of QFKGKYLAKHN [CASK_Y712_D710G_YF], the phosphorylation enrichment in the series with AncSZ turned out to be 1.2; in the series with EPHB1 it was 0.49; with EPHB2, 0.527; with FGFR1 it was 0.498; with FGFR3, 0.327; with Fer (mouse), 0.441. Also, the phosphorylation enrichment with Fes stood at 0.616; in the series with Fyn, 0.415; with Hck, 0.376; with Jak2 it was 0.855; with MERTK it was 0.632; in the series with c-Abl (mouse) it was 0.467. In addition, the phosphorylation enrichment in the series with c-Src is 0.404. Besides, the SH2 binding enrichment was found to be 1.29 in the series with Grb2 SH2, 1.16 with SHP2-C SH2 and 1.16 with c-Src SH2.

Take DEGVNYFMSKG [FBXO8_Y156]: the phosphorylation enrichment with AncSZ turned out to be 1.1; with EPHB1 it was 0.457; in the series with EPHB2, 0.685; in the series with FGFR1 it was 0.862; with FGFR3, 0.926; with Fer (mouse) it was 0.402. In addition, the phosphorylation enrichment with Fes was 0.984; with Fyn it was 0.422; with Hck it was 0.456; with Jak2, 0.996; with MERTK, 0.39; in the series on c-Abl (mouse) it was 0.705. Also, in the series on c-Src, the phosphorylation enrichment was found to be 0.388. Further, the SH2 binding enrichment with Grb2 SH2 is 0.674; with SHP2-C SH2, 0.544; with c-Src SH2, 0.442.

For the sequence DLAGRYYALRS [CKB_Y173_K177R], the phosphorylation enrichment came out at 0.729 in the series with AncSZ; 0.352 with EPHB1; 0.439 in the series with EPHB2; 0.963 with FGFR1; 0.811 in the series with FGFR3; 0.477 in the series on Fer (mouse). Further, the phosphorylation enrichment with Fes was found to be 0.649; in the series with Fyn, 0.484; with Hck, 0.681; with Jak2 it was 1.65; with MERTK it was 2.19; in the series with c-Abl (mouse), 0.544. Further, the phosphorylation enrichment with c-Src amounted to 0.487. The SH2 binding enrichment with Grb2 SH2 is 0.775; with SHP2-C SH2, 0.9; in the series with c-Src SH2, 1.87.

Source of the values: the supplement of paper PMC10065799, “High-throughput profiling of sequence recognition by tyrosine kinases and SH2 domains using bacterial peptide display” (eLife, 2023).
